The supplement of paper PMC10724198
± gives the standard deviation of the averaged measurements.

Assays:
Saccharomyces cerevisiae [1] = assay: protein stability index of tFT-peptide fusion (C-terminal peptide) (PSI (0-1 scale)); higher = more stable (slower turnover); details: genetic background: wild type; temperature: 30 C
Saccharomyces cerevisiae [2] = assay: as above
Procedure: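 MPS profiling in S. cerevisiae of the tFT-X12 degron library: putative degron peptides plus stable controls, 12 aa, fused to the C-terminus of a sfGFP-mCherry timer. Cells are FACS-sorted into 8 mCherry/sfGFP bins and deep-sequenced. PSI runs from 0 (unstable) to 1 (stable). Backgrounds are wild type, das1Δ and doa10Δ at 30 °C, and wild type, das1Δ, cdc34-1 and cdc53-1 at 37 °C; 2-3 technical replicates each.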

[3] = genetic background: cdc34-1, temperature: 37 C
[4] = genetic background: cdc53-1, temperature: 37 C
[5] = genetic background: das1 deletion, temperature: 30 C
[6] = genetic background: das1 deletion, temperature: 37 C
[7] = genetic background: doa10 deletion, temperature: 30 C
[8] = genetic background: wild type, temperature: 30 C
[9] = genetic background: wild type, temperature: 37 C
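Further: PSI is a weighted mean of sequencing reads over stability bins, variants kept only with over 10 reads, mCherry proximal and sfGFP distal, peptide attached via GGGS linker.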

| Sequence | protein stability index (Saccharomyces cerevisiae [1]) | protein stability index (Saccharomyces cerevisiae [2]; [3]) | protein stability index (Saccharomyces cerevisiae [2]; [4]) | protein stability index (Saccharomyces cerevisiae [2]; [5]) | protein stability index (Saccharomyces cerevisiae [2]; [6]) | protein stability index (Saccharomyces cerevisiae [2]; [7]) | protein stability index (Saccharomyces cerevisiae [2]; [8]) | protein stability index (Saccharomyces cerevisiae [2]; [9]) |
| --- | --- | --- | --- | --- | --- | --- | --- | --- |
| FGCCLYFCFWGL | 0.433 ± 0.005 | 0.455 ± 0.0063 | 0.519 ± 0.011 | 0.386 ± 0.026 | 0.524 ± 0.0085 | 0.3524 ± 0.0025 | 0.372 ± 0.018 | 0.491 ± 0.016 |
| ISSYKFLRIVLV | 0.189 ± 0.0046 | 0.384 ± 0.01 | 0.435 ± 0.0053 | 0.335 ± 0.026 | 0.509 ± 0.022 | 0.131 ± 0.031 | 0.149 ± 0.032 | 0.191 ± 0.0035 |
| FFFFLVPVHCVI | 0.358 ± 0.02 | 0.261 ± 0.029 | 0.371 ± 0.028 | 0.261 ± 0.035 | 0.452 ± 0.021 | 0.239 ± 0.023 | 0.249 ± 0.024 | 0.406 ± 0.018 |
| PLLPLPRFPLFA | 0.41 ± 0.021 | 0.547 ± 0.018 | 0.558 ± 0.038 | 0.411 ± 0.03 | 0.595 ± 0.021 | 0.332 ± 0.009 | 0.367 ± 0.013 | 0.529 ± 0.019 |
| LAEHIFLVLDHG | 0.453 ± 0.013 | 0.451 ± 0.026 | 0.485 ± 0.013 | 0.428 ± 0.0085 | 0.499 ± 0.0062 | 0.463 ± 0.024 | 0.432 ± 0.0071 | 0.478 ± 0.0089 |
| FPTLVRKFINAI | 0.13 ± 0.0092 | 0.448 ± 0.024 | 0.629 ± 0.052 | 0.56 ± 0.016 | 0.6825 ± 0.0019 | 0.0802 ± 0.011 | 0.0817 ± 0.014 | 0.123 ± 0.018 |
| VRVWLLACASKG | 0.281 ± 0.014 | 0.3332 ± 0.00082 | 0.423 ± 0.026 | 0.236 ± 0.0066 | 0.378 ± 0.019 | 0.228 ± 0.037 | 0.24 ± 0.015 | 0.3609 ± 0.0016 |
| TIRKCIIKWIKI | 0.368 ± 0.016 | 0.591 ± 0.032 | 0.581 ± 0.031 | 0.475 ± 0.021 | 0.596 ± 0.029 | 0.174 ± 0.0094 | 0.189 ± 0.036 | 0.398 ± 0.024 |
| LFFFFLPHLILL | 0.377 ± 0.035 | 0.3403 ± 0.00055 | 0.321 ± 0.041 | 0.321 ± 0.046 | 0.4803 ± 0.004 | 0.404 ± 0.058 | 0.26 ± 0.028 | 0.395 ± 0.011 |
| FWYIRIRLAVVA | 0.0536 ± 0.019 | 0.0797 ± 0.027 | 0.175 ± 0.029 | 0.0867 ± 0.013 | 0.179 ± 0.006 | 0.0283 ± 0.0015 | 0.0257 ± 0.0096 | 0.0826 ± 0.01 |
| CYTGYMYKLLVG | 0.346 ± 0.027 | 0.507 ± 0.054 | 0.547 ± 0.01 | 0.48 ± 0.031 | 0.59019 ± 0.00036 | 0.2458 ± 0.00076 | 0.243 ± 0.027 | 0.423 ± 0.015 |
| GGWGVFGVWVWM | 0.324 ± 0.0082 | 0.476 ± 0.051 | 0.557 ± 0.0062 | 0.429 ± 0.027 | 0.59 ± 0.0025 | 0.186 ± 0.0072 | 0.214 ± 0.031 | 0.422 ± 0.012 |
| PLFLRPLSVPVL | 0.425 ± 0.0092 | 0.421 ± 0.0067 | 0.441 ± 0.01 | 0.333 ± 0.03 | 0.457 ± 0.0058 | 0.305 ± 0.0096 | 0.328 ± 0.024 | 0.4324 ± 0.0022 |
| FLIFFVCLFRWK | 0.328 ± 0.0066 | 0.185 ± 0.0059 | 0.243 ± 0.0062 | 0.231 ± 0.023 | 0.3191 ± 0.0023 | 0.21 ± 0.025 | 0.235 ± 0.029 | 0.301 ± 0.0041 |
| TFRPWPLHILAL | 0.257 ± 0.029 | 0.195 ± 0.0033 | 0.219 ± 0.029 | 0.216 ± 0.038 | 0.325 ± 0.0089 | 0.15 ± 0.0036 | 0.166 ± 0.026 | 0.201 ± 0.019 |
| GMLIYVIGGLSH | 0.508 ± 0.06 | 0.652 ± 0.016 | 0.652 ± 0.04 | 0.435 ± 0.027 | 0.667 ± 0.017 | 0.438 ± 0.011 | 0.4464 ± 0.0034 | 0.626 ± 0.019 |
| IYFFFFALHFPN | 0.524 ± 0.067 | 0.498 ± 0.083 | 0.521 ± 0.013 | 0.366 ± 0.054 | 0.535 ± 0.029 | 0.388 ± 0.019 | 0.407 ± 0.025 | 0.544 ± 0.047 |
| FSYFFIFFYMVC | 0.238 ± 0.0085 | 0.207 ± 0.029 | 0.257 ± 0.042 | 0.234 ± 0.043 | 0.378 ± 0.038 | 0.152 ± 0.01 | 0.147 ± 0.035 | 0.228 ± 0.0028 |
| VSWSVSALIYLK | 0.35 ± 0.0075 | 0.169 ± 0.017 | 0.1 ± 0.026 | 0.233 ± 0.039 | 0.319 ± 0.014 | 0.572 ± 0.01 | 0.277 ± 0.034 | 0.295 ± 0.015 |
| RALYLLALVGVS | 0.362 ± 0.11 | 0.234 ± 0.0075 | 0.254 ± 0.02 | 0.223 ± 0.034 | 0.371 ± 0.0042 | 0.169 ± 0.0096 | 0.214 ± 0.024 | 0.3484 ± 0.0029 |

| Sequence | protein stability index (Saccharomyces cerevisiae [1]) | protein stability index (Saccharomyces cerevisiae [2]; [3]) | protein stability index (Saccharomyces cerevisiae [2]; [4]) | protein stability index (Saccharomyces cerevisiae [2]; [5]) | protein stability index (Saccharomyces cerevisiae [2]; [6]) | protein stability index (Saccharomyces cerevisiae [2]; [7]) | protein stability index (Saccharomyces cerevisiae [2]; [8]) | protein stability index (Saccharomyces cerevisiae [2]; [9]) |
| --- | --- | --- | --- | --- | --- | --- | --- | --- |
| RPIFAYRPLRFL | 0.342 ± 0.053 | 0.656 ± 0.047 | 0.757 ± 0.001 | 0.654 ± 0.014 | 0.763 ± 0.023 | 0.212 ± 0.0076 | 0.231 ± 0.04 | 0.503 ± 0.015 |
| LLLLGVSLFLVR | 0.3657 ± 0.00075 | 0.282 ± 0.0053 | 0.378 ± 0.011 | 0.265 ± 0.019 | 0.454 ± 0.0081 | 0.223 ± 0.013 | 0.255 ± 0.018 | 0.4257 ± 0.0031 |
| WLFRASSFNWVI | 0.105 ± 0.036 | 0.537 ± 0.017 | 0.7359 ± 0.0063 | 0.689 ± 0.04 | 0.802 ± 0.025 | 0.0843 ± 0.016 | 0.105 ± 0.026 | 0.188 ± 0.019 |
| VVGVLLLYLNPF | 0.4677 ± 0.0038 | 0.431 ± 0.0048 | 0.5071 ± 0.0037 | 0.351 ± 0.025 | 0.572 ± 0.023 | 0.3188 ± 0.0024 | 0.336 ± 0.039 | 0.525 ± 0.0095 |
| VMLIRVSRGIKC | 0.41 ± 0.0097 | 0.359 ± 0.044 | 0.463 ± 0.13 | 0.293 ± 0.024 | 0.4846 ± 0.0047 | 0.242 ± 0.0097 | 0.29 ± 0.038 | 0.473 ± 0.0067 |
| LFDVLFVFSFIF | 0.449 ± 0.045 | 0.4681 ± 0.0013 | 0.524 ± 0.006 | 0.413 ± 0.017 | 0.535 ± 0.015 | 0.432 ± 0.034 | 0.42 ± 0.024 | 0.503 ± 0.019 |
| RLGIRCLYLRFI | 0.306 ± 0.011 | 0.406 ± 0.1 | 0.422 ± 0.052 | 0.482 ± 0.059 | 0.5974 ± 0.0019 | 0.25 ± 0.015 | 0.216 ± 0.035 | 0.363 ± 0.016 |
| VSSFLLPFCLLF | 0.51 ± 0.1 | 0.65 ± 0.025 | 0.689 ± 0.029 | 0.645 ± 0.0076 | 0.714 ± 0.025 | 0.654 ± 0.021 | 0.641 ± 0.016 | 0.6753 ± 0.0013 |
| SAWGQAFWCQMG | 0.4071 ± 0.00098 | 0.712 ± 0.027 | 0.7859 ± 0.0057 | 0.648 ± 0.019 | 0.764 ± 0.016 | 0.233 ± 0.016 | 0.265 ± 0.014 | 0.555 ± 0.025 |
| RSWLCFIVFGLF | 0.313 ± 0.011 | 0.368 ± 0.027 | 0.413 ± 0.03 | 0.317 ± 0.03 | 0.485 ± 0.015 | 0.238 ± 0.0067 | 0.234 ± 0.014 | 0.347 ± 0.011 |
| FPFHSRPCLPVL | 0.518 ± 0.056 | 0.567 ± 0.0099 | 0.576 ± 0.11 | 0.475 ± 0.025 | 0.622 ± 0.041 | 0.4581 ± 0.0044 | 0.471 ± 0.012 | 0.5723 ± 0.0015 |
| LYFLLGSLVFVF | 0.392 ± 0.0081 | 0.366 ± 0.0083 | 0.417 ± 0.015 | 0.273 ± 0.035 | 0.506 ± 0.014 | 0.244 ± 0.0021 | 0.275 ± 0.019 | 0.461 ± 0.031 |
| LIRVLRVLRHSS | 0.375 ± 0.056 | 0.607 ± 0.015 | 0.6917 ± 0.0043 | 0.638 ± 0.018 | 0.7225 ± 0.0011 | 0.167 ± 0.0097 | 0.194 ± 0.021 | 0.382 ± 0.045 |
| GLPGYAWGRSGG | 0.586 ± 0.22 | 0.6759 ± 0.0045 | 0.788 ± 0.02 | 0.743 ± 0.037 | 0.782 ± 0.012 | 0.776 ± 0.037 | 0.775 ± 0.029 | 0.7221 ± 0.0024 |
| SWMSQFSILLTA | 0.285 ± 0.043 | 0.0938 ± 0.037 | 0.122 ± 0.0092 | 0.188 ± 0.021 | 0.23 ± 0.0046 | 0.1535 ± 0.00097 | 0.167 ± 0.031 | 0.199 ± 0.04 |
| SLSCYSFFVLAL | 0.482 ± 0.0072 | 0.513 ± 0.035 | 0.543 ± 0.027 | 0.404 ± 0.03 | 0.534 ± 0.0054 | 0.391 ± 0.014 | 0.401 ± 0.025 | 0.51315 ± 0.00015 |
| WWVVVRGGWCLC | 0.204 ± 0.011 | 0.336 ± 0.043 | 0.416 ± 0.014 | 0.286 ± 0.032 | 0.495 ± 0.009 | 0.1219 ± 0.0001 | 0.16 ± 0.0021 | 0.205 ± 0.0045 |
| VFVFTFSLSFYC | 0.3465 ± 0.0031 | 0.223 ± 0.031 | 0.326 ± 0.0073 | 0.25 ± 0.028 | 0.356 ± 0.019 | 0.257 ± 0.02 | 0.274 ± 0.018 | 0.3241 ± 0.0021 |
| FLLLDFMLVSLV | 0.483 ± 0.011 | 0.498 ± 0.015 | 0.5175 ± 0.0029 | 0.404 ± 0.022 | 0.543 ± 0.011 | 0.371 ± 0.029 | 0.412 ± 0.036 | 0.521 ± 0.037 |
